Paper PMC2651774

Molecular target: GST-CR3 (HAdV-5 E1A residues 139–204 fused to GST) (human adenovirus type 5 (HAdV-5)) (UniProt P03255)
Assay: pull-down

Chain of GST-CR3 (HAdV-5 E1A residues 139–204 fused to GST) (human adenovirus type 5 (HAdV-5)) (P03255 139-204): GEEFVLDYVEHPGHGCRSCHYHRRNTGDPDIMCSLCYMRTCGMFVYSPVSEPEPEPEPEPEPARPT
Chain of Full-length, purified FLAG-tagged CBP (CREB-binding protein), Q92793 1-2442 (natural protein) (Q92793 whole entry): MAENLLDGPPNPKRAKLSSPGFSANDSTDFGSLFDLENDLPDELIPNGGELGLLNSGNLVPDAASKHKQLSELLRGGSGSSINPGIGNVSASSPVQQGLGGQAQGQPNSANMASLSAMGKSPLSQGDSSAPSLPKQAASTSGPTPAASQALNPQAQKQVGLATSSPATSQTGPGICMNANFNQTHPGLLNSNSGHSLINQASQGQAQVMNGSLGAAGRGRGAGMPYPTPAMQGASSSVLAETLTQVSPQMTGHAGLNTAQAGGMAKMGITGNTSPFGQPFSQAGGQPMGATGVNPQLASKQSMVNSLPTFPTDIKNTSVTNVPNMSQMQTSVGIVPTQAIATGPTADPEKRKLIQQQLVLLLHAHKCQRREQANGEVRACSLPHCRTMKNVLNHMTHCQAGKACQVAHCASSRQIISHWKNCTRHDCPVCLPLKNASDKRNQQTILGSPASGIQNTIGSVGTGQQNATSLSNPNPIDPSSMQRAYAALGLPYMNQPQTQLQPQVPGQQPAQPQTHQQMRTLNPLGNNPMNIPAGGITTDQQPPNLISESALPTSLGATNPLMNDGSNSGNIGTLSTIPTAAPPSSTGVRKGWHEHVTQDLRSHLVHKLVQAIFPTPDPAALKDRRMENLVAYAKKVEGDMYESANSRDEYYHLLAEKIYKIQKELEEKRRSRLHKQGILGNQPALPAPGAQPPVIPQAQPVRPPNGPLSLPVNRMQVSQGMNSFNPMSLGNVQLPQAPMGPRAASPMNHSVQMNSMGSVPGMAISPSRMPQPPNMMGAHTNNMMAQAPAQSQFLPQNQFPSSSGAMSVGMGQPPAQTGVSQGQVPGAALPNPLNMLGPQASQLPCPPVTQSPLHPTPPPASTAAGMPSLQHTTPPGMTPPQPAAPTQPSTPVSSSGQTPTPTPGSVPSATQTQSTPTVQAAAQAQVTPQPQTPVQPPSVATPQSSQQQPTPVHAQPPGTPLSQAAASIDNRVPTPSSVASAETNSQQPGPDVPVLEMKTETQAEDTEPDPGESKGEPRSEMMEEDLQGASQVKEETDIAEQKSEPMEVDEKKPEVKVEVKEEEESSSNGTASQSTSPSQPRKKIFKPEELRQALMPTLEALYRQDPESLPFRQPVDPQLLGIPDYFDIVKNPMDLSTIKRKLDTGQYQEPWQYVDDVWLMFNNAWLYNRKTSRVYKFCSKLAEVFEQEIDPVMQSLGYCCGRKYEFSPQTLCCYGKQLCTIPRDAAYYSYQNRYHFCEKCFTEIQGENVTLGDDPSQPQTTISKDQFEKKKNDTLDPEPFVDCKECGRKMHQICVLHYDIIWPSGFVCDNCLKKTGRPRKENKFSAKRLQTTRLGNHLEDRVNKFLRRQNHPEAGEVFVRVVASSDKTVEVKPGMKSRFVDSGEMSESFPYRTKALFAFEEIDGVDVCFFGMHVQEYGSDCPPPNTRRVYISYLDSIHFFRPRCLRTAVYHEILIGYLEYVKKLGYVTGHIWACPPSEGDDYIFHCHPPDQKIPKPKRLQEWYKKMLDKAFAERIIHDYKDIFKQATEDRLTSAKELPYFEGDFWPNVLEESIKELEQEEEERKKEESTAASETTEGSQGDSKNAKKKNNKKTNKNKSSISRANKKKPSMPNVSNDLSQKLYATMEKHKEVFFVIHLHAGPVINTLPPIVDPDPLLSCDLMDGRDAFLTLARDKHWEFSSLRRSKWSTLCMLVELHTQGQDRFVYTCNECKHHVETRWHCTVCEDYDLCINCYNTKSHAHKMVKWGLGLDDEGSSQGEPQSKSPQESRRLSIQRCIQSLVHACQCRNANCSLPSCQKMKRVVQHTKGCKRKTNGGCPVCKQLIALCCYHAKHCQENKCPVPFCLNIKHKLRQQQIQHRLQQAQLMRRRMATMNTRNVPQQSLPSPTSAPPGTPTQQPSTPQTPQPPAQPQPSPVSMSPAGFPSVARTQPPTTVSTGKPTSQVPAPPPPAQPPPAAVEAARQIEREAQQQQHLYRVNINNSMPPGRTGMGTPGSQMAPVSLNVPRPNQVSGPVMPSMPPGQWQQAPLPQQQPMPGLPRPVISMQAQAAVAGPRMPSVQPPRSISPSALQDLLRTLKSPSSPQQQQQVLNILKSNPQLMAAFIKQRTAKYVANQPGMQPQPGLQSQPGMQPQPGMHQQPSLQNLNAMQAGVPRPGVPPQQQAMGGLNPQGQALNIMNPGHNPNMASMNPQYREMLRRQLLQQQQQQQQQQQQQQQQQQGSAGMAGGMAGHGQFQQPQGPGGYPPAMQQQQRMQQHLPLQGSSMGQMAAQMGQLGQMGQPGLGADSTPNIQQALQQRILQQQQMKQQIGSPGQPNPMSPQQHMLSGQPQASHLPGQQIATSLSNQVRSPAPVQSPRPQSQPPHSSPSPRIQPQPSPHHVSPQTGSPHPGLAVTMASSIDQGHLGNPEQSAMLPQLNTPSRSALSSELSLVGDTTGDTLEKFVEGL

## Full-length, purified FLAG-tagged CBP (CREB-binding protein), Q92793 1-2442 (natural protein)
  reduction of the interaction on addition of HeLa total cellular extract: 50%
